{
  "source": "paper PMC8837617",
  "about": "(2022)",
  "target": "MAPK ERK2 (human, UniProt P28482 1-360)",
  "sequence (P28482 whole entry)": "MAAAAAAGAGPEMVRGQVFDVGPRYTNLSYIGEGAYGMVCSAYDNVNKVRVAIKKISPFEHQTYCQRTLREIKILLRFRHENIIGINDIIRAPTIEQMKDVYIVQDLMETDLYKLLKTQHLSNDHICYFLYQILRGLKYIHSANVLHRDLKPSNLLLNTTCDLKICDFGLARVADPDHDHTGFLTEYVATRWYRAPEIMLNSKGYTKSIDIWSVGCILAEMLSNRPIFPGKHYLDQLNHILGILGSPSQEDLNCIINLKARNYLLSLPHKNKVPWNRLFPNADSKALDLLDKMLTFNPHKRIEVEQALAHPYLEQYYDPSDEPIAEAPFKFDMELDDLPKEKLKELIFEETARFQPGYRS",
  "assay": "FP",
  "note": "No end group written: not given here. *: point of attachment. 5FAM = O=C1OC2(c3ccc(O)cc3Oc3cc(O)ccc32)c2ccc(C(=O)*)cc21",
  "data": [
    {"binder": "5FAM-RLQERRGSNVALMLDV", "note": "[fluorescent reporter peptide fl-HePTP]", "values": [
      {"measurement": "Kd", "value": 23.9, "unit": "µM"}
    ]}
  ]
}
